According to patent US20210355166A1, “[…] METHODS OF USE THEREOF” (priority 2018, published 2021):

How the values were obtained:
[1] = molecular target: human κ-opioid receptor (hKOPr), human recombinant KOPr expressed in CHO cells (human) (UniProt P41145); experiment: competition with [3H]U69593 (2 nM), human recombinant KOPr expressed in CHO cells
[2] = molecular target: human δ-opioid receptor (hDOPr), human recombinant DOPr expressed in CHO cells (human) (UniProt P41143); experiment: competition with [3H]DADLE (0.5 nM), human recombinant DOPr expressed in CHO cells

- Ki [1]: 770 nM
- Ki [2]: 190 nM
Substance: bilorphin (H-[Dmt]-vVf-NH2; 2,6-dimethyl-L-tyrosine-D-Val-L-Val-D-Phe-NH2) (peptide)
